System: MS2 coat protein
Experiment: apparent KD of MS2 coat protein; designed switch direction (-1 OFF switch, 1 ON switch): 1; higher = weaker reporter binding
How it was run: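 The apparent KD reported per design is the median over clusters of curve fits to normalised cluster fluorescence. The RNA switches were transcribed on Illumina chips by stalled E. coli RNA polymerase. SNAP-549-labelled MS2 coat protein was titrated from 0.7 or 1.5 nM, doubling up to 3 µM, in Tris-HCl pH 7.5 buffer containing KCl, MgCl2, BSA, DTT, tRNA and Tween-20, with no input, 200 uM small-molecule ligand, or an oligonucleotide input.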

[1] = input ligand: microRNA oligo, concentration not stated
[2] = Eterna round: R95, input ligand: FMN 200 uM
[3] = Eterna round: R95, input ligand: microRNA oligo, concentration not stated
[4] = Eterna round: R95, input ligand: none

| Sequence | apparent KD of MS2 coat protein (input ligand: FMN 200 uM) | apparent KD of MS2 coat protein [1] | apparent KD of MS2 coat protein (input ligand: none) | apparent KD of MS2 coat protein [2] | apparent KD of MS2 coat protein [3] | apparent KD of MS2 coat protein [4] |
| --- | --- | --- | --- | --- | --- | --- |
| AGUAGUUUAACAUGAGGAUCACCCAUGUAUCUAUCUGUAACCUAGGAUAUGGAGGUUUUAUUUAACCAGAAGGAGGAUUGUUUA [JR_SSNG3_Sub044] (Eterna round: R96, puzzle: Same State NG 3) | 0.0198 µM | 0.0176 µM | 0.0242 µM |  |  |  |
| AGUCCAGCAUGAGCUGGACAAAAGCAUGUACAUGAGGAUCACCCAUGUCAUGUACAAGCUUUUUGCUCGUCUUAAUA [Mat - hsa-mir-208a - Mod of JL - D35] (puzzle: Sensor for hsa-mir-208a) |  |  |  | 0.513 µM | 0.0159 µM | 0.534 µM |
| AGUCCAGCAUGAGCUGGACAAAAGCAUGUACAUGAGGAUCACCCAUGUUCAUGUACAAGCUUUUUGCUCGUCUUAAU [Mat - hsa-mir-208a - Mod of JL - 61] (puzzle: Sensor for hsa-mir-208a) |  |  |  | 0.549 µM | 0.0159 µM | 0.698 µM |
| AGUCCAGCCUGAGCUGGACAAAAGCAUGUACAUGAGGAUCACCCAUGUCAUGUGCAAGCUUUUUGCUCGUCUUAAAA [Zipper 46 - 6] (puzzle: Sensor for hsa-mir-208a) |  |  |  | 0.061 µM | 0.0116 µM | 0.0679 µM |
| AGUCCAGCCUGAGCUGGACAAAAGCAUGUACAUGAGGAUCACCCAUGUUCAUGUACAAGCUUUUUGCUCGUCAUAAA [Mat - hsa-mir-208a - Mod of JL - 51] (puzzle: Sensor for hsa-mir-208a) |  |  |  | 0.402 µM | 0.0149 µM | 0.474 µM |
| AGUCCAGCCUGAGCUGGACAAAAGCAUGUACAUGAGGAUCACCCAUGUUCAUGUACAAGCUUUUUGCUCGUCGUAAU [Mat - hsa-mir-208a - Mod of JL - 48] (puzzle: Sensor for hsa-mir-208a) |  |  |  | 0.501 µM | 0.0167 µM | 0.611 µM |
| AGUCCAGCCUGAGCUGGACAAAAGCAUGUACAUGAGGAUCACCCAUGUUCAUGUACAAGCUUUUUGCUCGUCUUAAC [salish99_208a_r3_029] (puzzle: Sensor for hsa-mir-208a) |  |  |  | 0.553 µM | 0.0168 µM | 0.636 µM |
| AGUCCAGCCUGAGCUGGACAAAAGCAUGUACAUGAGGAUCACCCAUGUUCAUGUACAAGCUUUUUGCUCGUCUUUAA [salish99_208a_r3_096x] (Eterna round: R96, puzzle: Sensor for hsa-mir-208a) | 0.559 µM | 0.0145 µM | 0.577 µM |  |  |  |
| AGUCCAGCCUGAGCUGGACAAAAGCAUGUACAUGAGGAUCACCCAUGUUCAUGUACAAGCUUUUUGCUCGUCUUUAA [salish99_208a_r3_096x] (puzzle: Sensor for hsa-mir-208a) |  |  |  | 0.658 µM | 0.0145 µM | 0.985 µM |
| AGUCCAGCCUGAGCUGGACAAAUGCAUGUACAUGAGGAUCACCCAUGUUCAUGUACAAGCAUUUUGCUCGUCUUAAA [Sensor for hsa-mir-208a (JL zipper 55 mod - 61 to A)] (Eterna round: R96, puzzle: Sensor for hsa-mir-208a) | 0.33 µM | 0.0135 µM | 0.346 µM |  |  |  |
| AGUCCAGCCUGAGCUGGACGAAAGCAUGUACAUGAGGAUCACCCAUGUCAUGUACAAGCUUUUUGCUCGUCUUAAAA [Zipper 46 - 4] (puzzle: Sensor for hsa-mir-208a) |  |  |  | 0.482 µM | 0.015 µM | 0.532 µM |
| AGUCCAGCCUGAGCUGGACUGAAGCAUGUACAUGAGGAUCACCCAUGUUCAUGUACAGGCUUUUUGCUCGUCUUAUG [JL-shm-2.02 JL mod] (Eterna round: R96, puzzle: Sensor for hsa-mir-208a) | 0.619 µM | 0.0146 µM | 0.676 µM |  |  |  |
| AGUCCAGCCUGAGCUGGACUGAAGCAUGUACAUGAGGAUCACCCAUGUUCAUGUACAGGCUUUUUGCUCGUCUUAUG [JL-shm-2.02 JL mod] (puzzle: Sensor for hsa-mir-208a) |  |  |  | 0.842 µM | 0.0182 µM | 0.879 µM |
| AGUCCAGCCUGAGCUGGACUGAAGCAUGUACAUGAGGAUCACCCAUGUUCAUGUGCAGGCUUUUUGCUCGUCUUAUG [JL-shm-2.01 JL mod] (puzzle: Sensor for hsa-mir-208a) |  |  |  | 0.0847 µM | 0.0135 µM | 0.108 µM |
| AGUCCAGCGAAAGCUGGACAAAAGCAUGUACAUGAGGAUCACCCAUGUUCAUGUACAAGCUUUUUGCUCGUCUUGAA [JL mod - D95 - 9] (puzzle: Sensor for hsa-mir-208a) |  |  |  | 0.313 µM | 0.0171 µM | 0.611 µM |

Source: the supplement of paper PMC9170038
